Experimental data: patent publication EP4424325A1 (JCR Pharmaceuticals Co., Ltd., dated 2024)
Residue numbers refer to the chain shown, from its start.

B1: VHH5-GS3-hIDS (other)
chain: QVQLVESGGGLVQPGGSLRLSCAASGSIFDIYVMRWYRQAPGKGLEWVASIYDGGRNDYDNVVKGRFTISRDNSKNTLYLQMNSLRAEDTAVYFCNVLTYAGRPYWGQGTQVTVSSGGGGSGGGGSGGGGSSETQANSTTDALNVLLIIVDDLRPSLGCYGDKLVRSPNIDQLASHSLLFQNAFAQQAVCAPSRVSFLTGRRPDTTRLYDFNSYWRVHAGNFSTIPQYFKENGYVTMSVGKVFHPGISSNHTDDSPYSWSFPPYHPSSEKYENTKTCRGPDGELHANLLCPVDVLDVPEGTLPDKQSTEQAIQLLEKMKTSASPFFLAVGYHKPHIPFRYPKEFQKLYPLENITLAPDPEVPDGLPPVAYNPWMDIRQREDVQALNISVPYGPIPVDFQRKIRQSYFASVSYLDTQVGRLLSALDDLQLANSTIIAFTSDHGWALGEHGEWAKYSNFDVATHVPLIFYVPGRTASLPEAGEKLFPYLDPFDSASQLMEPGRQSMDLVELVSLFPTLAGLAGLQVPPRCPVPSFHVELCREGKNLLKHFRFRDLEEDPYLPGNPRELIAYSQYPRPSDIPQWNSDKPSLKDIKIMGYSIRTIDYRYTVWVGFNPDEFLANFSDIHAGELYFVDSDPLQDHNMYNDSQGGDLFQLLMP
notes: VHH-enzyme fusion; also called VHH5-GS3-hI2S
B2: VHH6-GS3-hIDS (other)
chain: B1 chain with D53A
notes: VHH-enzyme fusion; also called VHH6-GS3-hI2S
B3: hTfR affinity peptide 1 (VHH)
VHH: QVQLVESGGGLVHPGGSLRLSCVASGTSFSLNVVTWYRQALGKQREWVATINQSEAPTYADSVKGRFTISRDGAKNTVYLQMNSLVTEDTALYYCYDRYNEIRGQGTQVTVSS
notes: Expressed in CHO-S cells, purified on Anti-FLAG M1 agarose; also called clone 1; VHH(1)
B4: hTfR affinity peptide 2 (VHH)
VHH: B3 VHH with R19S, V23A, L31F, V33T, Q53G, E55G, Q81L
notes: The tag is stated only for peptide 1; Peptides 2 to 5 were obtained 'in the same manner'; also called clone 2; VHH(2)
B5: hTfR affinity peptide 4 (VHH)
VHH: QVQLVESGGGLVQAGASLRLSCAASGRTDGIDRMAWFHQAPGEGREFVAGINKRGGGVDYAPGVKGRFTLSLDSDKNTLYLQMNNLRLEDTGVYSCAVGSGRIIVKSDTWGQGTQVTVSS
notes: The tag is stated only for peptide 1; Peptides 2 to 5 were obtained 'in the same manner'; also called clone 4; VHH(4)
B6: hTfR affinity peptide 5 (VHH)
VHH: QVQLVESGGGLVQPGGSLRLSCAASGSIFDIYVMRWYRQAPGKGLEWVASIYDGGRNDYDNVVKGRFTISRDNSKNTLYLQMNSLRAEDTAVYFCNVLTYAGRPYWGQGTQVTVSS
notes: Same CDRs as peptide 3; The tag is stated only for peptide 1; Peptides 2 to 5 were obtained 'in the same manner'; also called clone 5; VHH(5)
B7: hTfR affinity peptide 3 (VHH)
VHH: B6 VHH with G16E, K43N, G44Q, L45R, S74A, L78V, Y79H, R86K, A87P
notes: The tag is stated only for peptide 1; Peptides 2 to 5 were obtained 'in the same manner'; also called clone 3; VHH(3)
B8: hTfR affinity peptide 6 (VHH)
VHH: B6 VHH with D53A
notes: One amino acid of CDR2 of peptide 5 is substituted; also called VHH6
B9: VHH3-GS3-hSGSH (other)
chain: DYKDDDDKQVQLVESGGGLVQPGESLRLSCAASGSIFDIYVMRWYRQAPGNQREWVASIYDGGRNDYDNVVKGRFTISRDNAKNTVHLQMNSLKPEDTAVYFCNVLTYAGRPYWGQGTQVTVSSGGGGSGGGGSGGGGSRPRNALLLLADDGGFESGAYNNSAIATPHLDALARRSLLFRNAFTSVSSCSPSRASLLTGLPQHQNGMYGLHQDVHHFNSFDKVRSLPLLLSQAGVRTGIIGKKHVGPETVYPFDFAYTEENGSVLQVGRNITRIKLLVRKFLQTQDDRPFFLYVAFHDPHRCGHSQPQYGTFCEKFGNGESGMGRIPDWTPQAYDPLDVLVPYFVPNTPAARADLAAQYTTVGRMDQGVGLVLQELRDAGVLNDTLVIFTSDNGIPFPSGRTNLYWPGTAEPLLVSSPEHPKRWGQVSEAYVSLLDLTPTILDWFSIPYPSYAIFGSKTIHLTGRSLLPALEAEPLWATVFGSQSHHEVTMSYPMRSVQHRHFRLVHNLNFKMPFPIDQDFYVSPTFQDLLNRTTAGQPTGWYKDLRHYYYRARWELYDRSRDPHETQNLATDPRFAQLLEMLRDQLAKWQWETHDPWVCAPDGVLEEKLSPQCQPLHNEL
notes: VHH-enzyme fusion; Purified on anti-FLAG M1 gel; also called VHH-GS3-hSGSH
B10: VHH5-Tandem-GS3-hIDS (other)
chain: QVQLVESGGGLVQPGGSLRLSCAASGSIFDIYVMRWYRQAPGKGLEWVASIYDGGRNDYDNVVKGRFTISRDNSKNTLYLQMNSLRAEDTAVYFCNVLTYAGRPYWGQGTQVTVSSGSQVQLVESGGGLVQPGGSLRLSCAASGSIFDIYVMRWYRQAPGKGLEWVASIYDGGRNDYDNVVKGRFTISRDNSKNTLYLQMNSLRAEDTAVYFCNVLTYAGRPYWGQGTQVTVSSGGGGSGGGGSGGGGSSETQANSTTDALNVLLIIVDDLRPSLGCYGDKLVRSPNIDQLASHSLLFQNAFAQQAVCAPSRVSFLTGRRPDTTRLYDFNSYWRVHAGNFSTIPQYFKENGYVTMSVGKVFHPGISSNHTDDSPYSWSFPPYHPSSEKYENTKTCRGPDGELHANLLCPVDVLDVPEGTLPDKQSTEQAIQLLEKMKTSASPFFLAVGYHKPHIPFRYPKEFQKLYPLENITLAPDPEVPDGLPPVAYNPWMDIRQREDVQALNISVPYGPIPVDFQRKIRQSYFASVSYLDTQVGRLLSALDDLQLANSTIIAFTSDHGWALGEHGEWAKYSNFDVATHVPLIFYVPGRTASLPEAGEKLFPYLDPFDSASQLMEPGRQSMDLVELVSLFPTLAGLAGLQVPPRCPVPSFHVELCREGKNLLKHFRFRDLEEDPYLPGNPRELIAYSQYPRPSDIPQWNSDKPSLKDIKIMGYSIRTIDYRYTVWVGFNPDEFLANFSDIHAGELYFVDSDPLQDHNMYNDSQGGDLFQLLMP
notes: Two copies of peptide 5 in tandem, fused to hIDS; also called VHH5-Tandem-GS3-hI2S

Tests used:
[1] = target: T1, recombinant hTfR containing the extracellular region of hTfR (coated on the ELISA plate in Example 16) (human, UniProt P02786 89-760); experiment: ELISA, recombinant hTfR coated on plate, detection with anti-hIDS monoclonal antibody
T1 construct: That contradicts 'extracellular region' (residue 89 to the C-terminus elsewhere); also called human transferrin receptor

[2] = target: T2, recombinant monkey TfR, extracellular region of cynomolgus monkey transferrin receptor with a histidine tag … (cynomolgus monkey (Macaca fascicularis), UniProt Q5RDH6 89-760 (Pongo abelii entry)); experiment: ratio calculated from the measured KD values
T2 construct: also called monkey TfR-ECD(Histag); cynomolgus monkey TfR; not shown: N-terminal histidine tag
T2 chain: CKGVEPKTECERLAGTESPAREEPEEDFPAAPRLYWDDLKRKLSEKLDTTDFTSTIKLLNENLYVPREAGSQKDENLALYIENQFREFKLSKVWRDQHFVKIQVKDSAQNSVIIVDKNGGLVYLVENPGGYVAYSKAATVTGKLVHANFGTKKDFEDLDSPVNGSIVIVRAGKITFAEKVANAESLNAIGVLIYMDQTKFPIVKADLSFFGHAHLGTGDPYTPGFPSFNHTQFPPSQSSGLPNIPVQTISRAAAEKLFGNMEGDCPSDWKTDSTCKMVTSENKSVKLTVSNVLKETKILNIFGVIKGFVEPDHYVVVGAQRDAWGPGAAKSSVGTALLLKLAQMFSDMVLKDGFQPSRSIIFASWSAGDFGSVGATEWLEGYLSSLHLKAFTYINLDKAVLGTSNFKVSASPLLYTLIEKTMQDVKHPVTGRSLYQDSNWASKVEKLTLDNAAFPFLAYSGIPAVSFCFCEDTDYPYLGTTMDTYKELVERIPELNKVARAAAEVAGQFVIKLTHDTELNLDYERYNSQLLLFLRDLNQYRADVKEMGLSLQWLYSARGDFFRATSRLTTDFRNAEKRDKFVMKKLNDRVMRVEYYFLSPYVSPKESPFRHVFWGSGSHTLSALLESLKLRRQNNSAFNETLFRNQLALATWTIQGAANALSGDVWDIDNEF

[3] = target: T3, recombinant hTfR, extracellular region of human transferrin receptor with a histidine tag added at the … (human, UniProt P02786 89-760); experiment: BLI (OctetRED96), His-tagged TfR ECD on Ni-NTA sensor, peptide in solution
T3 construct: also called hTfR-ECD(Histag); human TfR; not shown: N-terminal histidine tag
Target sequence in this assay (P02786 89-760): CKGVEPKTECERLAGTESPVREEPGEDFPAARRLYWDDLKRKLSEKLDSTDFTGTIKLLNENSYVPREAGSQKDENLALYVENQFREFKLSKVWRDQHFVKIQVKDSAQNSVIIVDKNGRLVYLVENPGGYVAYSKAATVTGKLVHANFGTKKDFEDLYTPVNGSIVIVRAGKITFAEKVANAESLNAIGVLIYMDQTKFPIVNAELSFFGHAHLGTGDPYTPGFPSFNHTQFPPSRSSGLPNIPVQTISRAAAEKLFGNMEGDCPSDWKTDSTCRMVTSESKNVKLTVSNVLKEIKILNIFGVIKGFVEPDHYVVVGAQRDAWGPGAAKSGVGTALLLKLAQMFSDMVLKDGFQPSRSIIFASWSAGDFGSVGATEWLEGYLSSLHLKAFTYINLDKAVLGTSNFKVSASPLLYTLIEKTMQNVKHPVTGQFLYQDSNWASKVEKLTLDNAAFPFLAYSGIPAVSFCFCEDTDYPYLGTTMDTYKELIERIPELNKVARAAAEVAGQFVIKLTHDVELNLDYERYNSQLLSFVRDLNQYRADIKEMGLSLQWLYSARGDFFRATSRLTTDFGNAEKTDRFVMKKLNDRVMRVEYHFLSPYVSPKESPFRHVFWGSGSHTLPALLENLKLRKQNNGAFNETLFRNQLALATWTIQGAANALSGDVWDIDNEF

[4] = target: T2, recombinant monkey TfR, extracellular …; experiment: as above
[5] = target: T3, recombinant hTfR, extracellular region …; experiment: BLI (OctetRED96), method of Example 7, His-tagged TfR ECD on Ni-NTA sensor
[6] = target: T2, recombinant monkey TfR, extracellular …; experiment: as above

Binder | EC50 [1] | relative value of KD with monkey TfR (KD with hTfR taken as 1) [2] | Kd [3] | koff [3] | kon [3] | Kd [4] | koff [4] | kon [4] | also measured
B1 | 1.09 nM |  |  |  |  |  |  |  | 
B2 | 22.7 nM |  |  |  |  |  |  |  | 
B3 |  | 1.06 | 97 nM | 0.0271 s⁻¹ | 280000 M⁻¹ s⁻¹ |  |  |  | 
B4 |  | 2.36 | 61.4 nM | 0.0146 s⁻¹ | 237000 M⁻¹ s⁻¹ |  |  |  | 
B5 |  | 0.83 | 11.9 nM | 0.0027 s⁻¹ | 227000 M⁻¹ s⁻¹ | 9.92 nM | 0.00316 s⁻¹ | 318000 M⁻¹ s⁻¹ | 
B6 |  | 1.27 | 13.8 nM | 0.00562 s⁻¹ | 407000 M⁻¹ s⁻¹ | 17.5 nM | 0.00695 s⁻¹ | 396000 M⁻¹ s⁻¹ | 
B7 |  | 1.02 | 10.5 nM | 0.006 s⁻¹ | 571000 M⁻¹ s⁻¹ | 10.7 nM | 0.0123 s⁻¹ | 1.15e+06 M⁻¹ s⁻¹ | 
B8 |  |  | 137 nM | 0.0586 s⁻¹ | 428000 M⁻¹ s⁻¹ |  |  |  | 
B9 |  |  |  |  |  |  |  |  | Kd [5]: < 0.001 nM; koff [5]: < 1e-07 s⁻¹; kon [5]: 423000 M⁻¹ s⁻¹; Kd [6]: 0.00116 nM; koff [6]: 4.81e-07 s⁻¹; kon [6]: 417000 M⁻¹ s⁻¹
B10 | 0.077 nM |  |  |  |  |  |  |  | 
